In assay [1] the target is Bacillus anthracis protective antigen (PA) (Bacillus anthracis) (UniProt P13423).
Assay [2] has the same target. This is another data set of the same source.

Chain of UniProt P13423 (P13423 30-764 limits assumed): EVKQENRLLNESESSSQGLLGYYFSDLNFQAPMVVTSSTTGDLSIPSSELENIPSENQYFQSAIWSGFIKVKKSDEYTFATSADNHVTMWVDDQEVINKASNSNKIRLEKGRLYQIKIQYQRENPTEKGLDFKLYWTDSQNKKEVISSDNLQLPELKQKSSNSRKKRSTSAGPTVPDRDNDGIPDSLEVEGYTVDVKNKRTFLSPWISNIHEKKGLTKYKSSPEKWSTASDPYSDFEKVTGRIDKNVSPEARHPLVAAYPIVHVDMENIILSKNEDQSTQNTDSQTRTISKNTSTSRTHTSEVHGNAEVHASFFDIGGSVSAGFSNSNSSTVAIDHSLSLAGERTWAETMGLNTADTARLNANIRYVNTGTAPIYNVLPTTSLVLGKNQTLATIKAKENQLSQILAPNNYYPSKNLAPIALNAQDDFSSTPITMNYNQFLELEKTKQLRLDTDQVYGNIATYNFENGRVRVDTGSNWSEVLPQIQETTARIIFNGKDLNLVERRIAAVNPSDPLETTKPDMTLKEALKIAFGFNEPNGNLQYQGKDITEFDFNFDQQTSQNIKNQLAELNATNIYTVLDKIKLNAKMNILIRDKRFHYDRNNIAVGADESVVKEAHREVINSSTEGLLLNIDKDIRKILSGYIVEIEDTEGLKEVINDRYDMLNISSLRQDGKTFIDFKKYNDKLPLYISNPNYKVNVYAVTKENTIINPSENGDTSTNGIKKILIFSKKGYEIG

“NlpA-[14B7 scFv], anchored on the E. coli inner membrane (APEx)” returned a fold higher mean fluorescence intensity compared to controls in assay [1] of 9 fold. In assay [2], this substance registered a mean fluorescence of 30. “NlpA-[M18 scFv], anchored on the E. coli inner membrane (APEx)” displayed a mean fluorescence in assay [2] of 250.
